B1: nuclease P1: nuclease used to hydrolyze RNAs prior to mass spectrometry (protein, UniProt P24289 1-270, looked up)
Nuclease P1: WGALGHATVAYVAQHYVSPEAASWAQGILGSSSSSYLASIASWADEYRLTSAGKWSASLHFIDAEDNPPTNCNVDYERDCGSSGCSISAIANYTQRVSDSSLSSENHAEALRFLVHFIGDMTQPLHDEAYAVGGNKINVTFDGYHDNLHSDWDTYMPQKLIGGHALSDAESWAKTLVQNIESGNYTAQAIGWIKGDNISEPITTATRWASDANALVCTVVMPHGAAALQTGDLYPTYYDSVIDTIELQIAKGGYRLANWINEIHGSEIAK
B2: 6×His-SUMO-tagged human NUDT2: recombinant full-length human NUDT2 with the larger 6×-His-SUMO tag (protein, UniProt P50583 1-147, looked up)
chain: MALRACGLIIFRRCLIPKVDNNAIEFLLLQASDGIHHWTPPKGHVEPGEDDLETALRETQEEAGIEAGQLTIIEGFKRELNYVARNKPKTVIYWLAEVKDYDVEIRLSHEHQAYRWLGLEEACQLAQFKEMKAALQEGHQFLCSIEA
modifications: full-length 6xHis-SUMO tag
notes: recombinant full-length human NUDT2 with the larger 6×-His-SUMO tag
B3: NUDT12: recombinant untagged full-length human NUDT12 (protein, UniProt Q9BQG2 1-462, looked up)
chain: MSSVKRSLKQEIVTQFHCSAAEGDIAKLTGILSHSPSLLNETSENGWTALMYAARNGHPEIVQFLLEKGCDRSIVNKSRQTALDIAVFWGYKHIANLLATAKGGKKPWFLTNEVEECENYFSKTLLDRKSEKRNNSDWLLAKESHPATVFILFSDLNPLVTLGGNKESFQQPEVRLCQLNYTDIKDYLAQPEKITLIFLGVELEIKDKLLNYAGEVPREEEDGLVAWFALGIDPIAAEEFKQRHENCYFLHPPMPALLQLKEKEAGVVAQARSVLAWHSRYKFCPTCGNATKIEEGGYKRLCLKEDCPSLNGVHNTSYPRVDPVVIMQVIHPDGTKCLLGRQKRFPPGMFTCLAGFIEPGETIEDAVRREVEEESGVKVGHVQYVACQPWPMPSSLMIGCLALAVSTEIKVDKNEIEDARWFTREQVLDVLTKGKQQAFFVPPSRAIAHQLIKHWIRINPNL
modifications: full-length
B4: NUDT2: recombinant full-length human NUDT2, Nudix hydrolase for Ap4A (protein)
chain: ALRACGLIIFRRHLIPKMDNSTIEFLLLQASDGIHHWTPPKGHVDPGENDLETALRETREETGIEASQLTIIEGFRRELNYVARQKPKTVIYWLAEVKDYNVEIRLSQEHQAYRWLGLEEACQLAQFKEMKATLQEGHQFLCSTPA

Key:
Format in all cases: biochemical
[1] = Ap4A hydrolysis assay (32P-labelled Ap4A, thin-layer chromatography); conditions: 750 nM recombinant human NUDT2 or Nuclease P1 0.5 and 1 unit, TLC
Procedure: To prepare radioactive Ap4A, we incubated 60 μCi of radioactive α-^32P-ATP (Perkin Elmer, Cat. no. BLU003X250UC; 75 fmol in 20 ul or 3.75 nM concentration) with 1 μM recombinant human Lys-tRNA synthetase (G540Y mutant) at 37° C. overnight in a 20 μl solution [100 mM Tris-HCl, pH 8.0, 10 mM MgCl2, 0.1 mM ZnCl2, 1 mM Lysine and 0.1 units inorganic pyrophosphatase (Sigma-Aldrich, Cat. no. I1643)].
We resolved the reaction products using thin-layer chromatography, using PEI-cellulose TLC plates (Merk, Cat. No. 1057250001) and developing it in 0.45 M (NH4)2SO4 using a glass chamber at room temperature. In addition to the ATP already present in the reaction, we see the presence of Ap4A (FIG. 9D). From this Ap4A mix (ATP and Ap4A), we obtained purified radioactive Ap4A (FIG. 9E) by HPLC (purification service kindly provided by Hartmann Analytic, Germany). For some experiments (FIG. 9F-G) we used this Ap4A mix (ATP and Ap4A). However, for most experiments (FIG. 2, FIG. 9E) the purified radioactive Ap4A was used.
For hydrolysis assays with Ap4A (AppppA, in bold is 32P), reactions were conducted as above, but the RNA was replaced with appropriate amount of HPLC-purified Ap4A. Hydrolysis assays were conducted with 750 nM of recombinant human NUDT2 or with Nuclease P1 (0.5 unit and 1 unit). NUDT2 hydrolyzes Ap4A (AppppA, in bold is 32P) into α-^32P-AMP and α-^32P-ATP (FIG. 2D).

m^7G-RNA = assay: In vitro m7G-RNA decapping assay (cap-labelled RNA, thin-layer chromatography); conditions: recombinant protein 250 nM to 750 nM, 37° C., 30 min, TLC
Ap4A-RNA = assay: In vitro Ap4A-RNA decapping assay (cap-labelled RNA, thin-layer chromatography); conditions: recombinant protein 250 nM to 750 nM, 37° C., 30 min, TLC
Procedure: Briefly, using the Ap4A mixture (ATP and Ap4A) or Ap4A instead of ATP for in vitro transcription by MEGAshortscript™ T7 Transcription Kit (Life technologies; Cat. No. AM1354), we produced a 50 nt RNA. Template is the same as making 50 nt RNA for MEFs transfection. Note that if the mixture is used, this nucleotide mixture (ATP and Ap4A) still has all the components (lysine, inorganic pyrophosphatase etc) added during the Ap4A synthesis. In vitro transcription reaction was carried out at 37° C. for at least 4 h in a 20 μL reaction containing 6 pmol DNA template, 2 μL 10× reaction buffer, 2 μL of nucleotides (75 mM CTP, 75 mM UTP, 75 mM GTP), 2 μL of ATP/Ap4A mixture that we produced above, and 2 μL T7 enzyme mix (MEGAshortscript™ Kit, Life technologies, Cat. No. AM1354). After that, 1 μL TURBO DNase was added and incubated at 37° C. for 15 min to remove the DNA template. Unincorporated nucleotides were removed from the RNA preparation by Microspin G-25 Column (GE Healthcare, Cat. No. 27-5325-01), and the process was repeated twice. The radioactively labelled RNA was separated by 10% urea gel. […]
Decapping reaction products were resolved by PEI-cellulose TLC plates (Merk, Cat. No. 1057250001) and developed in 0.45 M (NH4)2SO4 in a glass chamber at room temperature. […] When required, signals were quantified by ImageQuantTL.

Row | Molecule | Hydrolysis of Ap4A [1] | m7G-RNA decapping activity (m^7G-RNA) | Ap4A-RNA decapping activity (Ap4A-RNA)
1 | B1 | able to efficiently hydrolyse Ap4A |  | 
2 | B2 |  | poorly active | 
3 | B3 |  |  | only NUDT2 has Ap4A-RNA decapping activity
4 | B4 | mostly asymmetrically hydrolyzed into ATP (Appp) and AMP (pA) | can decap m^7G-RNAs | only NUDT2 has Ap4A-RNA decapping activity
